Experimental data taken from paper PMC6037785, “Microtubule minus-end aster organization is driven by processive HSET-tubulin clusters” (Nature Communications, 2018).

Legend:
[1] = biological target: unlabeled HSET (full-length HSET with N-terminal 6x His tag, no EGFP) (human) (UniProt Q9BW19); assay: fluorescence intensity analysis of moving particles (TIRF); first frame of moving EGFP-HSET (with unlabeled tubulin) or moving Cy5-tubulin (10 nM, with 10 nM unlabeled HSET) on GMPCPP-MTs compared with single molecules adhered to glass; BRB80 + 50 mM KCl with 0.5 mg/mL casein
[2] = biological target: the molecule itself; assay: single-molecule stepwise photobleaching (TIRF); single EGFP-tagged molecules adhered to a glass surface; photobleaching traces compared with EGFP-XMCAK, a known dimer; monomers to dimer

| Molecule | brightness of moving Cy5-tubulin particles (with HSET) over single Cy5-tubulin molecules [1] [fold] | stoichiometry N [2] |
| --- | --- | --- |
| Cy5-tubulin (bovine brain tubulin labeled with NHS-Cy5, 100% labeled) (from UniProt Q6B856 1-445) (complex) | 11.8 |  |
| EGFP-HSET (full-length HSET/KIFC1, human kinesin-14, with N-terminal 6x His tag and EGFP) (natural protein, UniProt Q9BW19 1-673, looked up, HSET/KIFC1, Homo sapiens kinesin-14, amino acids 1-673; No tag cleavage is described; also called full-length EGFP-HSET; pFASTBAC-HTa-EGFP-HSET; source: Sf9 cells (baculovirus), purified (Ni-NTA, size exclusion chromatography); not shown: His6, N-terminal, kept; EGFP, N-terminal, kept) MDPQRSPLLEVKGNIELKRPLIKAPSQLPLSGSRLKRRPDQMEDGLEPEKKRTRGLGATTKITTSHPRVPSLTTVPQTQGQTTAQKVSKKTGPRCSTAIATGLKNQKPVPAVPVQKSGTSGVPPMAGGKKPSKRPAWDLKGQLCDLNAELKRCRERTQTLDQENQQLQDQLRDAQQQVKALGTERTTLEGHLAKVQAQAEQGQQELKNLRACVLELEERLSTQEGLVQELQKKQVELQEERRGLMSQLEEKERRLQTSEAALSSSQAEVASLRQETVAQAALLTEREERLHGLEMERRRLHNQLQELKGNIRVFCRVRPVLPGEPTPPPGLLLFPSGPGGPSDPPTRLSLSRSDERRGTLSGAPAPPTRHDFSFDRVFPPGSGQDEVFEEIAMLVQSALDGYPVCIFAYGQTGSGKTFTMEGGPGGDPQLEGLIPRALRHLFSVAQELSGQGWTYSFVASYVEIYNETVRDLLATGTRKGQGGECEIRRAGPGSEELTVTNARYVPVSCEKEVDALLHLARQNRAVARTAQNERSSRSHSVFQLQISGEHSSRGLQCGAPLSLVDLAGSERLDPGLALGPGERERLRETQAINSSLSTLGLVIMALSNKESHVPYRNSKLTYLLQNSLGGSAKMLMFVNISPLEENVSESLNSLRFASKVNQCVIGTAQANRK |  | 2 |
| EGFP-HSETΔMotor (domain or fragment, human, UniProt Q9BW19 1-304, looked up, HSET/KIFC1, Homo sapiens kinesin-14, amino acids 1-304 (tail and stalk, motor domain deleted); also called pET15b-HTa-EGFP-HSETΔMotor; source: E. coli BL21DE3, purified (Ni-NTA, size exclusion chromatography); not shown: His6, N-terminal, kept; EGFP, N-terminal, kept) MDPQRSPLLEVKGNIELKRPLIKAPSQLPLSGSRLKRRPDQMEDGLEPEKKRTRGLGATTKITTSHPRVPSLTTVPQTQGQTTAQKVSKKTGPRCSTAIATGLKNQKPVPAVPVQKSGTSGVPPMAGGKKPSKRPAWDLKGQLCDLNAELKRCRERTQTLDQENQQLQDQLRDAQQQVKALGTERTTLEGHLAKVQAQAEQGQQELKNLRACVLELEERLSTQEGLVQELQKKQVELQEERRGLMSQLEEKERRLQTSEAALSSSQAEVASLRQETVAQAALLTEREERLHGLEMERRRLHNQL |  | 2 |
| EGFP-HSET-DoubleTail (other, human, HSET/KIFC1, Homo sapiens kinesin-14, amino acids 1-307 (tail and stalk); flexible amino acid linker; HSET/KIFC1, Homo sapiens kinesin-14, amino acids 1-137 (second copy of the N-terminal tail in place of the motor domain); also called pET15b-HTa-EGFP-HSETDoubleTail; source: E. coli BL21DE3, purified (Ni-NTA, size exclusion chromatography); not shown: His6, N-terminal, kept; EGFP, N-terminal, kept) MDPQRSPLLEVKGNIELKRPLIKAPSQLPLSGSRLKRRPDQMEDGLEPEKKRTRGLGATTKITTSHPRVPSLTTVPQTQGQTTAQKVSKKTGPRCSTAIATGLKNQKPVPAVPVQKSGTSGVPPMAGGKKPSKRPAWDLKGQLCDLNAELKRCRERTQTLDQENQQLQDQLRDAQQQVKALGTERTTLEGHLAKVQAQAEQGQQELKNLRACVLELEERLSTQEGLVQELQKKQVELQEERRGLMSQLEEKERRLQTSEAALSSSQAEVASLRQETVAQAALLTEREERLHGLEMERRRLHNQLQELGGSGGSMDPQRSPLLEVKGNIELKRPLIKAPSQLPLSGSRLKRRPDQMEDGLEPEKKRTRGLGATTKITTSHPRVPSLTTVPQTQGQTTAQKVSKKTGPRCSTAIATGLKNQKPVPAVPVQKSGTSGVPPMAGGKKPSKRPAW |  | 2 |
| EGFP-HSETΔTail (domain or fragment, human, UniProt Q9BW19 139-673, looked up, HSET/KIFC1, Homo sapiens kinesin-14, amino acids 139-673 (stalk and motor, N-terminal tail deleted); also called pFASTBAC-HTa-EGFP-HSETΔTail; tailless HSET; source: Sf9 cells (baculovirus), purified (Ni-NTA, size exclusion chromatography); not shown: His6, N-terminal, kept; EGFP, N-terminal, kept) LKGQLCDLNAELKRCRERTQTLDQENQQLQDQLRDAQQQVKALGTERTTLEGHLAKVQAQAEQGQQELKNLRACVLELEERLSTQEGLVQELQKKQVELQEERRGLMSQLEEKERRLQTSEAALSSSQAEVASLRQETVAQAALLTEREERLHGLEMERRRLHNQLQELKGNIRVFCRVRPVLPGEPTPPPGLLLFPSGPGGPSDPPTRLSLSRSDERRGTLSGAPAPPTRHDFSFDRVFPPGSGQDEVFEEIAMLVQSALDGYPVCIFAYGQTGSGKTFTMEGGPGGDPQLEGLIPRALRHLFSVAQELSGQGWTYSFVASYVEIYNETVRDLLATGTRKGQGGECEIRRAGPGSEELTVTNARYVPVSCEKEVDALLHLARQNRAVARTAQNERSSRSHSVFQLQISGEHSSRGLQCGAPLSLVDLAGSERLDPGLALGPGERERLRETQAINSSLSTLGLVIMALSNKESHVPYRNSKLTYLLQNSLGGSAKMLMFVNISPLEENVSESLNSLRFASKVNQCVIGTAQANRK |  | 2 |
